What was measured:
[1] = biological target: T1, human Jagged 2, full length, on HEK293 cells (human, UniProt Q9Y219 24-1238); experiment: FACS, 293-JAG2 cells, anti-human-APC
T1 construct: whole, on cells; also called J2; hJ2
Method: FIG. 18. […] Samples were analysed by FACS and the mean fluorescence intensities (MFI) were plotted. […] With the exception of J1-65D variants 13-16, all the remaining antibodies effectively bound the human J1 protein.
(§1) HEK293 cells transfected with human J1, J2 or FLAG-EGFP-tagged DSL-EGF3 constructs, B16F10 cells transfected with human DLL4 or mouse J1, and human cancer cell lines, were stained with either purified anti-J1 antibodies at 10 μg/ml diluted in FACS wash buffer (2% FBS in PBS+0.1% sodium azide) or neat hybridoma supernatants followed by a allophycocyanin (APC)-conjugated secondary antibody at 1:200 dilution: for murine primary antibodies, used goat anti-mouse-APC (eBioscience); for humanised and chimeric antibodies used goat anti-human IgG (H+L) secondary antibody (Jackson ImmunoResearch Laboratories). After washing, samples were fixed with 1% paraformaldehyde (in PBS) and acquired with a FACSCalibur. FACS data were analysed with FlowJo software (TreeStar Inc.).

[2] = biological target: T2, murine Jagged 1, full length, on B16F10 cells (mouse, UniProt Q9QXX0 34-1218); experiment: FACS, B16F10-mJAG1 cells, anti-human-APC
T2 construct: whole, on cells; GFP co-expressed; also called mJ1; B16F10-mJAG1
T2 sequence (Q9QXX0 34-1218, one chain of several): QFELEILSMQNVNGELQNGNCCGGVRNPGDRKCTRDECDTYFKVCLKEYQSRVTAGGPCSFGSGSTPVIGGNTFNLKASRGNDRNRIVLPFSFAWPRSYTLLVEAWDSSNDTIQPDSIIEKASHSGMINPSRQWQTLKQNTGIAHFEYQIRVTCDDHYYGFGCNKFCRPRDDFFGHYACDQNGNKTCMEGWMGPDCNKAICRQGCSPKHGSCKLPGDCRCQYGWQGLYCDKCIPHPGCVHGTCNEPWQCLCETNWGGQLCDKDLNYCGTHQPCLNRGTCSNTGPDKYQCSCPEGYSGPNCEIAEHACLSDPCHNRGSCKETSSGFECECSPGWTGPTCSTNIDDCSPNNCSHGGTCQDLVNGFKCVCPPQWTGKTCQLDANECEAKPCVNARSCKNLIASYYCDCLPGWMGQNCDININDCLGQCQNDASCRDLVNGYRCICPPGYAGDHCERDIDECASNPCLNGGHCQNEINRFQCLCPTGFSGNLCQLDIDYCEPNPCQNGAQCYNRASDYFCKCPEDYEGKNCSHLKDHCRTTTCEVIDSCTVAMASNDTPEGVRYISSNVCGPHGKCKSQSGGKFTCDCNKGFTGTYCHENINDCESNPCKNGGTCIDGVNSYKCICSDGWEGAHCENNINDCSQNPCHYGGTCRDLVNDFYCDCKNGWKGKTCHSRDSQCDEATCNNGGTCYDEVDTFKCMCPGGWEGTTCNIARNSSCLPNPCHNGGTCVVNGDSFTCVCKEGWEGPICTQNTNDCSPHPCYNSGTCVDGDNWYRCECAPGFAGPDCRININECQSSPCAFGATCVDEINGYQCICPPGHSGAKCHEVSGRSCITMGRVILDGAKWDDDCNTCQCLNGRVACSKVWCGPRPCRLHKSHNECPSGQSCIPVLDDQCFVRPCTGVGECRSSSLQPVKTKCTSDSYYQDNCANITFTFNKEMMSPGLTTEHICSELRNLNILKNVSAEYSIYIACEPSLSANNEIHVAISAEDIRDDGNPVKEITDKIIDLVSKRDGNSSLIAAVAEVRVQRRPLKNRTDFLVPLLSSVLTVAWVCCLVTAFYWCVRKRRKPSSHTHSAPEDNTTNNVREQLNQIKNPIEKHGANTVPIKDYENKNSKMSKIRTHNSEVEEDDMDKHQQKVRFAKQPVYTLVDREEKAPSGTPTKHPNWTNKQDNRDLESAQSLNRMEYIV
Method: FIG. 19. […] Samples were analysed by FACS and the mean fluorescence intensities (MFI) were plotted.
as §1

[3] = biological target: T3, J1 DSL-EGF3 soluble recombinant protein (human Jagged 1 amino acids 185-335) (human, UniProt P78504 185-335); experiment: affinity to the immunogen J1-DE3; method not stated
T3 construct: biotinylated in the CD46 ELISA; also called J1-DE3; DSL+EGF1-3
T3 sequence (P78504 185-335, form in doubt): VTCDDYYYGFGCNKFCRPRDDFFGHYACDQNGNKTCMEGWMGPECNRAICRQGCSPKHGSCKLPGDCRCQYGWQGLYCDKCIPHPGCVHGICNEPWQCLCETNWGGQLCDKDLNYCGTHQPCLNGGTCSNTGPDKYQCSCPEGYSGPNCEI

T1 sequence (Q9Y219 24-1238): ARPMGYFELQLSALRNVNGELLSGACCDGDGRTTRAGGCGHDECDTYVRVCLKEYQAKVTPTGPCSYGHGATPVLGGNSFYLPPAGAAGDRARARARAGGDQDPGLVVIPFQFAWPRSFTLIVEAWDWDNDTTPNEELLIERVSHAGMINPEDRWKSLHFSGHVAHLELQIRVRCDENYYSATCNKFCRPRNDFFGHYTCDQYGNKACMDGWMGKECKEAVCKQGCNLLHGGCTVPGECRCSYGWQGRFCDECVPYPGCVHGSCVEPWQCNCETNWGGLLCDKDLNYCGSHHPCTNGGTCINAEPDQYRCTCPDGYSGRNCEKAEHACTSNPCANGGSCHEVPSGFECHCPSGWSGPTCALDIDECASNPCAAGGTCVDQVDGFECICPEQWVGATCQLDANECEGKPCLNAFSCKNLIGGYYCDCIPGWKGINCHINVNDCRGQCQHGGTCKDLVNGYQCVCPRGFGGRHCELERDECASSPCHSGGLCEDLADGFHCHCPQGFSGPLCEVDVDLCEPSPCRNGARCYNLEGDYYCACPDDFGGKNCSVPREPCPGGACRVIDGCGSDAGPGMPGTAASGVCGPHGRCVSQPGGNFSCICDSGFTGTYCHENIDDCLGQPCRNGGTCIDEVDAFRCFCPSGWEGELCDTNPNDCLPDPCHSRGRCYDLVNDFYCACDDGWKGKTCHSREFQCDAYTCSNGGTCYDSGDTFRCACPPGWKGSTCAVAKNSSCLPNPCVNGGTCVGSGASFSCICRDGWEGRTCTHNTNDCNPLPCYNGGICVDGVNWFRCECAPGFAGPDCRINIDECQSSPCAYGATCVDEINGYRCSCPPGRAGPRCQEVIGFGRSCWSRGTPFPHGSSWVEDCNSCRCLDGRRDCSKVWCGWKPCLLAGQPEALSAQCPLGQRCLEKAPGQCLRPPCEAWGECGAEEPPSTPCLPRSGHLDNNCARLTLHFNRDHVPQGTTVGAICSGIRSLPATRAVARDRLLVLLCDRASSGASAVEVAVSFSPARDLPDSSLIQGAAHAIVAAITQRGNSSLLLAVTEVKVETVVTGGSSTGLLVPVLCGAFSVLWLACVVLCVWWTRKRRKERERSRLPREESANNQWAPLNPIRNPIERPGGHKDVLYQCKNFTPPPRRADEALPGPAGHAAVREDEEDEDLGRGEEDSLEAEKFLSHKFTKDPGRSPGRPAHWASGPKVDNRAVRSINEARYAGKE

binding result [1] | binding result [2] | Kd [3] [nM] | Binder
no binding (tested: 10 ug/ml) | no binding (tested: 10 ug/ml) |  | J1-183D chimeric (antibody, human IgG1, V domains shown, chimeric antibody with unaltered CDRs; vectors encode human IgG1) VH: QVQLQQPGTELVRPGVSVKISCKVSGYAFTDYAIHWIMQSHAKSLEWIGIINTYYGDSKYNQKFKDKATMTVDKSSNTAYMELARLTSEDSAIYYCARGYDGFAYWGQGTLVTVSS VL: DIQLTQSPASLSASVGETVTFTCRTSENIYSYLTWYQQKQGKSPQLLVYNAKILAAGVPSRFSGYGSGTQFSLKINSLQPEDFGTYYCQHHYDIPWTFGGGTKLEIK
no binding (tested: 10 ug/ml) | no binding (tested: 10 ug/ml) | 58.3 | J1-65D variant 14 (antibody, human IgG1, V domains shown, human IgG1; also called J1-65DV14; V14) VH: QVQLVQSGAELKKPGSSVKVSCKASGYTFTDYEMHWVRQAPGQGLEWMGAIQPGGGGTAYAQKFKGRVTLTADKSTSTAYMELSSLRSEDTAVYYCTRRGYDDYPFAYWGQGTLVTVSS VL: DIQMTQSPSSLSASVGDRVTITCRASQGIHNYLAWYQQKPGKAPKLLIYNAKTLADAVPSRFSGSGSGTDYTLTISSLQPEDFATYYCQQFWSAPWTFGQGTKLEIK
no binding (tested: 10 ug/ml) | no binding (tested: 10 ug/ml) | 52.1 | J1-65D variant 16 (antibody, human IgG1, V domains shown, human IgG1; also called J1-65DV16; V16) VH: QVQLVQSGAEVKKPGSSVKVSCKASGYTFTDYEMHWVRQAPGQGLEWMGAIQPGGGGTAYAQKFQGRVTITADKSTSTAYMELSSLRSEDTAVYYCTRRGYDDYPFAYWGQGTLVTVSS VL: DIQMTQSPSSLSASVGDRVTITCRASQGIHNYLAWYQQKPGKAPKLLIYNAKTLADAVPSRFSGSGSGTDYTLTISSLQPEDFATYYCQQFWSAPWTFGQGTKLEIK
no binding (tested: 10 ug/ml) | no binding (tested: 10 ug/ml) | 14.2 | J1-65D variant 13 (antibody, human IgG1, V domains shown, human IgG1; also called J1-65DV13; V13) VH: QVQLVQSGAELKKPGSSVKVSCKASGYTFTDYEMHWVRQAPGQGLEWMGAIQPGGGGTAYNQKFKGRVTLTADKSTSTAYMELSSLRSEDTAVYYCTRRGYDDYPFAYWGQGTLVTVSS VL: DIQMTQSPSSLSASVGDRVTITCRASQGIHNYLAWYQQKPGKAPKLLIYNAKTLADAVPSRFSGSGSGTDYTLTISSLQPEDFATYYCQQFWSAPWTFGQGTKLEIK
no binding (tested: 10 ug/ml) | no binding (tested: 10 ug/ml) | 39.8 | J1-65D variant 15 (antibody, human IgG1, V domains shown, human IgG1; also called J1-65DV15; V15) VH: QVQLVQSGAEVKKPGSSVKVSCKASGYTFTDYEMHWVRQAPGQGLEWMGAIQPGGGGTAYAQKFQGRVTLTADKSTSTAYMELSSLRSEDTAVYYCTRRGYDDYPFAYWGQGTLVTVSS VL: DIQMTQSPSSLSASVGDRVTITCRASQGIHNYLAWYQQKPGKAPKLLIYNAKTLADAVPSRFSGSGSGTDYTLTISSLQPEDFATYYCQQFWSAPWTFGQGTKLEIK
no binding (tested: 10 ug/ml) | no binding (tested: 10 ug/ml) | 1.77 | J1-183D variant 10 (antibody, human IgG1, V domains shown, human IgG1; also called J1-183DV10; V10) VH: QVQLVQSGAELKKPGASVKVSCKVSGYAFTDYAIHWIRQAPGQGLEWMGIINTYYGDSKYAQKFQGRVTMTVDTSTSTAYMELSSLRSEDTAVYYCARGYDGFAYWGQGTLVTVSS VL: DIQMTQSPSSLSASVGDRVTITCRTSENIYSYLTWYQQKPGKAPKLLIYNAKILDSGVPSRFSGSGSGTDFTLTISSLQPEDFATYYCQHHYDIPWTFGGGTKLEIKR
no binding (tested: 10 ug/ml) | no binding (tested: 10 ug/ml) | 1.48 | J1-183D variant 8 (antibody, human IgG1, V domains shown, human IgG1; also called J1-183DV8; V8) VH: QVQLVQSGAEVKKPGASVKVSCKASGYTFTDYAIHWVRQAPGQGLEWMGIINTYYGDSKYAQKFQGRVTMTVDTSTSTAYMELSSLRSEDTAVYYCARGYDGFAYWGQGTLVTVSS VL: DIQMTQSPSSLSASVGDRVTITCRTSENIYSYLTWYQQKPGKAPKLLIYNAKTLASGVPSRFSGSGSGTDFTLTISSLQPEDFATYYCQHHYDIPWTFGGGTKLEIKR
no binding (tested: 10 ug/ml) | no binding (tested: 10 ug/ml) | 2.55 | J1-183D variant 3 (antibody, human IgG1, V domains shown, human IgG1; also called J1-183DV3; V3) VH: QVQLVQSGAELKKPGASVKVSCKVSGYAFTDYAIHWVRQAPGQGLEWMGIINTYYGDSKYAQKFQGRVTMTVDTSTSTAYMELSSLRSEDTAVYYCARGYDGFAYWGQGTLVTVSS VL: DIQMTQSPSSLSASVGDRVTITCRTSENIYSYLTWYQQKPGKAPKLLVYNAKILAAGVPSRFSGSGSGTDFTLTISSLQPEDFATYYCQHHYDIPWTFGGGTKLEIKR
no binding (tested: 10 ug/ml) | no binding (tested: 10 ug/ml) | 2.76 | J1-183D variant 4 (antibody, human IgG1, V domains shown, human IgG1; also called J1-183DV4; V4) VH: QVQLVQSGAEVKKPGASVKVSCKASGYTFTDYAIHWVRQAPGQGLEWMGIINTYYGDSKYAQKFQGRVTMTVDTSTSTAYMELSSLRSEDTAVYYCARGYDGFAYWGQGTLVTVSS VL: DIQMTQSPSSLSASVGDRVTITCRTSENIYSYLTWYQQKPGKAPKLLVYNAKILAAGVPSRFSGSGSGTDFTLTISSLQPEDFATYYCQHHYDIPWTFGGGTKLEIKR
no binding (tested: 10 ug/ml) | no binding (tested: 10 ug/ml) | 0.77 | J1-183D variant 1 (antibody, human IgG1, V domains shown, human IgG1; also called J1-183DV1; V1) VH: QVQLVQSGAELKKPGASVKVSCKVSGYAFTDYAIHWIRQAPGQGLEWMGIINTYYGDSKYNQKFKDRVTMTVDKSTSTAYMELSSLRSEDTAVYYCARGYDGFAYWGQGTLVTVSS VL: DIQMTQSPSSLSASVGDRVTITCRTSENIYSYLTWYQQKPGKAPKLLVYNAKILAAGVPSRFSGSGSGTDFTLTISSLQPEDFATYYCQHHYDIPWTFGGGTKLEIKR
no binding (tested: 10 ug/ml) | no binding (tested: 10 ug/ml) | 0.68 | J1-183D variant 9 (antibody, human IgG1, V domains shown, human IgG1; also called J1-183DV9; V9) VH: QVQLVQSGAELKKPGASVKVSCKVSGYAFTDYAIHWIRQAPGQGLEWMGIINTYYGDSKYNQKFKDRVTMTVDKSTSTAYMELSSLRSEDTAVYYCARGYDGFAYWGQGTLVTVSS VL: DIQMTQSPSSLSASVGDRVTITCRTSENIYSYLTWYQQKPGKAPKLLIYNAKILDSGVPSRFSGSGSGTDFTLTISSLQPEDFATYYCQHHYDIPWTFGGGTKLEIKR
no binding (tested: 10 ug/ml) | no binding (tested: 10 ug/ml) | 2.75 | J1-183D variant 5 (antibody, human IgG1, V domains shown, human IgG1; also called J1-183DV5; V5) VH: QVQLVQSGAELKKPGASVKVSCKVSGYAFTDYAIHWIRQAPGQGLEWMGIINTYYGDSKYNQKFKDRVTMTVDKSTSTAYMELSSLRSEDTAVYYCARGYDGFAYWGQGTLVTVSS VL: DIQMTQSPSSLSASVGDRVTITCRTSENIYSYLTWYQQKPGKAPKLLIYNAKTLASGVPSRFSGSGSGTDFTLTISSLQPEDFATYYCQHHYDIPWTFGGGTKLEIKR
no binding (tested: 10 ug/ml) | no binding (tested: 10 ug/ml) | 1.39 | J1-183D variant 6 (antibody, human IgG1, V domains shown, human IgG1; also called J1-183DV6; V6) VH: QVQLVQSGAELKKPGASVKVSCKVSGYAFTDYAIHWIRQAPGQGLEWMGIINTYYGDSKYAQKFQGRVTMTVDTSTSTAYMELSSLRSEDTAVYYCARGYDGFAYWGQGTLVTVSS VL: DIQMTQSPSSLSASVGDRVTITCRTSENIYSYLTWYQQKPGKAPKLLIYNAKTLASGVPSRFSGSGSGTDFTLTISSLQPEDFATYYCQHHYDIPWTFGGGTKLEIKR
no binding (tested: 10 ug/ml) | no binding (tested: 10 ug/ml) | 2.19 | J1-183D variant 2 (antibody, human IgG1, V domains shown, human IgG1; also called J1-183DV2; V2) VH: QVQLVQSGAELKKPGASVKVSCKVSGYAFTDYAIHWIRQAPGQGLEWMGIINTYYGDSKYAQKFQGRVTMTVDTSTSTAYMELSSLRSEDTAVYYCARGYDGFAYWGQGTLVTVSS VL: DIQMTQSPSSLSASVGDRVTITCRTSENIYSYLTWYQQKPGKAPKLLVYNAKILAAGVPSRFSGSGSGTDFTLTISSLQPEDFATYYCQHHYDIPWTFGGGTKLEIKR
no binding (tested: 10 ug/ml) | no binding (tested: 10 ug/ml) | 1.26 | J1-183D variant 7 (antibody, human IgG1, V domains shown, human IgG1; also called J1-183DV7; V7) VH: QVQLVQSGAELKKPGASVKVSCKVSGYAFTDYAIHWVRQAPGQGLEWMGIINTYYGDSKYAQKFQGRVTMTVDTSTSTAYMELSSLRSEDTAVYYCARGYDGFAYWGQGTLVTVSS VL: DIQMTQSPSSLSASVGDRVTITCRTSENIYSYLTWYQQKPGKAPKLLIYNAKTLASGVPSRFSGSGSGTDFTLTISSLQPEDFATYYCQHHYDIPWTFGGGTKLEIKR
no binding (tested: 10 ug/ml) | no binding (tested: 10 ug/ml) |  | J1-65D chimeric (antibody, human IgG1, V domains shown, chimeric antibody with unaltered CDRs; vectors encode human IgG1) VH: QVQLQQPGAELVRPGASVKLSCKALGYTFTDYEMHWVKETPVHGLEWIGAIQPGGGGTAYNQKFKGKATLTADKSSSTAYMELSSLTSEDSAVYYCTRRGYDDYPFAYWGQGTLVTVSS VL: DIQLTQSPASLSASVGETVTITCRASGNIHNYLAWYQQKQGKSPQLLVYNAKTLADDIPSRFSGSGSGTQYSLKINSLQPEDFGSYYCQHFWSAPWTFGGGTKLEIK

Reference: patent US20160108128A1 (CANCER RESEARCH TECHNOLOGY, published 2016)
